Results taken from patent US20040229289A1, “Antigen binding peptides (abtides) from peptide libraries” (Cytogen Corporation, priority 1994, published 2004).

B1: E73 (peptide)
peptide: GAPVWRGNRWCSDNGELERPGCGYGPRFNILPPGRGNSRKPSP
B2: E4 (peptide)
peptide: VSTGWSGTPRWCAPGGKQGSGCGNGPRWTTLTPDLGGTRKYGP
B3: E65 (peptide)
peptide: GSPVWMGSTRWTGHGWFRSQGCGNVPRTNSCAPAGKDSQNKGP
B4: E33 (peptide)
peptide: GSPVWSGDNRWRGSSPLKRPGCGNGAKCNTLKDNRKDSRKTKH
B5: E21 (peptide)
peptide: GSALLTSKGCVRGPGGLMRPGCGNDRLGKSSTYAHGGWIKTGP
B6: E29 (peptide)
peptide: GAHGYKNGSTCTGLGGWRCRGCGKGAMCNNPSPAGGAYHNQGP
B7: E16 (peptide)
peptide: GPPVWSAKSRWTGTGVLNWPGCGKVPSCSTYTPSRDRSRKSDP
B8: E88 (peptide)
peptide: EALVCRGKPPWSGPAGLLWQGCGTGPVSRTFTSAQGRSRNKTS
B9: E90 (peptide)
peptide: GAPVVGDILWCSGARGAKWPGCGKGPTNKTFSHSRGGTQKSGL
B10: E7 (peptide)
peptide: GAPLWCEKLSGTGSGGFKWPGCGSGPTYNTFTPARVGSDNKWP
B11: E85 (peptide)
peptide: GPRSWMGQPRGSDAGSCKWAGCGDAPMWRASTPGHGGPPNRGS
B12: E22 (peptide)
peptide: GAPVSRCKPACGGFWGVNWPGCGNASMCKTFTNGHGVSSDNGH
B13: E84 (peptide)
peptide: GSSGWKVKHRCGGPGTLQRPGCGNLPLGHTFPPTRGGSHMEGA

Molecular target: T1, PEM peptide (human)
T1 peptide: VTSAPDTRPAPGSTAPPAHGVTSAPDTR
Test: phage ELISA on PEM
Conditions: not given

Molecule	binding result
B1	binds
B2	binds
B3	binds
B4	binds
B5	binds
B6	binds
B7	binds
B8	binds
B9	binds
B10	binds
B11	binds
B12	binds
B13	binds

molecular target: T2, PEM (Homo sapiens, UniProt P15941); test: ELISA of phage from the MP-1 saturation mutagenesis library for binding to PEM; conditions: phage-displayed abtide from MP-1 saturation mutagenesis library
T2 construct: made in house; host or cells: chemical peptide synthesis
Description: A saturation mutagenesis library based on one of the PEM abtides, MP-1, was constructed. Nucleotide sequences encoding the MP-1 abtide were synthesized using a doping scheme similar to that described in Section 5.3 whereby each nucleotide was contaminated with 9% of each of the other 3 nucleotides (e.g. G=73% G, 9% A, 9% T, 9° C.). The resulting mutagenic oligonucleotides were used to construct a library by TSAR library methods described above (see FIG. 13).
The resulting library was screened to identify phage expressing abtides capable of binding to PEM. The binding of isolated phage to PEM was confirmed by an ELISA assay.

Molecule	binding of isolated phage to PEM (ELISA)
RSAVSEGKPREIVPGGCMWPGCGNGRKSNTLTHGPEQFQEIEP (phage displayed) [E15]	Negative Binding Sequences
GSPVWMGSTRWTGHGWFRSQGCGNVPRTNSCAPAGKDSQNKGP [E65]	Positive Binding Sequences
REPVVGGKPWCRGPGGLRWRGCGKSQFDKIITLSRDNRRDKRP [E83]	Negative Binding Sequences
GDPECRGKPRGRWTGSLACTGCGNGPNSKICTRARGVSRNKGP [E60]	Negative Binding Sequences
GAPLWQGDPADEVLGGSMIPGCGIGALSQTFTPTPGGSRKNVT (phage displayed) [E37]	Negative Binding Sequences
GSALLTSKGCVRGPGGLMRPGCGNDRLGKSSTYAHGGWIKTGP (phage displayed) [E21]	Positive Binding Sequences
GTRVPPGFALRGGRDGLSWAGCGKAPISKTYTSARGRSRKKGS (phage displayed) [E3]	Negative Binding Sequences
GPRSWMGQPRGSDAGSCKWAGCGDAPMWRASTPGHGGPPNRGS [E85]	Positive Binding Sequences
GAPLWCEKLSGTGSGGFKWPGCGSGPTYNTFTPARVGSDNKWP [E7]	Positive Binding Sequences
EALVCRGKPPWSGPAGLLWQGCGTGPVSRTFTSAQGRSRNKTS [E88]	Positive Binding Sequences
GSPVWSGDNRWRGSSPLKRPGCGNGAKCNTLKDNRKDSRKTKH (phage displayed) [E33]	Positive Binding Sequences
CAPMWSGKPPWCVGGGVKFRGCGNRPDCNIITPRLVESRDKAL [E68]	Positive Binding Sequences
GAPVSRCKPACGGFWGVNWPGCGNASMCKTFTNGHGVSSDNGH (phage displayed) [E22]	Positive Binding Sequences
GPPVWSAKSRWTGTGVLNWPGCGKVPSCSTYTPSRDRSRKSDP (phage displayed) [E16]	Positive Binding Sequences
GAPVVGDILWCSGARGAKWPGCGKGPTNKTFSHSRGGTQKSGL [E90]	Positive Binding Sequences
G PQGSEHQCCSGHWGLKFPGCGNGPICNNFTALRGASRKNGP (GPQGSEHQCCSGHWGLKFPGCGNGPICNNFTALRGASRKNGP) [E62]	Positive Binding Sequences

Molecule	binding of isolated phage to PEM (ELISA)
G PLLPGEAAVHGARGLMRSGCGNGPTWNRLTAACRDSRNKGP (GPLLPGEAAVHGARGLMRSGCGNGPTWNRLTAACRDSRNKGP; phage displayed; extra N-terminal G) [E44]	Positive Binding Sequences
GLSLVRGDSWGSGAGGWKRHGCGHGPMYNPQTPARGGSCTRNT [E66]	Positive Binding Sequences
STPGCSGYSGSGDPRCLTCTACGNGHTRKTLTPAHGRSTHKEP [E72]	Negative Binding Sequences
QARVSMAISCRSGPSDLMHQGCGYGPRCNPDTTDSGGSHTNTP (phage displayed) [E49]	Negative Binding Sequences
GAHGYKNGSTCTGLGGWRCRGCGKGAMCNNPSPAGGAYHNQGP (phage displayed) [E29]	Positive Binding Sequences
GAPVWRGNRWCSDNGELERPGCGYGPRFNILPPGRGNSRKPSP [E73]	Positive Binding Sequences
VSRAWSGKPRLMGSHGLNCPGCGKGHSGIMFIPDPAGSANTPP [E67]	Positive Binding Sequences
GAPVWRGNPRWRGPGGFKWPGCGNGPMCNTFTPARGGSRNNGP [MP-1]	Positive Binding Sequences
SSGVGNGKPRSWAPDALNGGCGNIQFANTITPDRGGSCNQTL (phage displayed) [E24]	Negative Binding Sequences
VSTGWSGTPRWCAPGGKQGSGCGNGPRWTTLTPDLGGTRKYGP (phage displayed) [E4]	Positive Binding Sequences
GSSVCGGQPSGRGFGGLPGPGCGNGPTSNTLTSARGGFPNKGL (phage displayed) [E27]	Negative Binding Sequences
GEPVWCRHSGGRVQGGLDWLGCGDGPLRYTVTPARGGPSKHGP [E64]	Positive Binding Sequences
AGRELRQDEGEGGAGADVARLREGPICSTFTPARGGSCPSGL (phage displayed) [E43]	Negative Binding Sequences
GSSGWKVKHRCGGPGTLQRPGCGNLPLGHTFPPTRGGSHMEGA [E84]	Positive Binding Sequences
ADPVCSRKPDGGGLRGLRWPGCGKGPILYNVTAARGGSRNNGP [E70]	Positive Binding Sequences
GQPECRITSGCCGTDGNKWLGCGKVDMCNTLNPAVGCHGTNGS (phage displayed) [E34]	Negative Binding Sequences
